Tests used:
[1] = molecular target: T1, human PD-1 (hPD-1) expressed on cells (human, UniProt Q15116 25-288); assay: cell based RBA (hPD-1/hPD-L1): blocking of Biotin-hPD-L1 binding to CHOK1-hPD-1 cells, flow cytometry
[2] = molecular target: T1, human PD-1 (hPD-1) expressed on cells
[3] = molecular target: T1, human PD-1 (hPD-1) expressed on cells; assay: cell-based or functional assay
hPD-1mIg fusion protein [4] = molecular target: T2, hPD-1mIg fusion protein (human; mouse, UniProt Q15116 25-170); assay: SPR, Biacore T200, hPD-1mIg immobilized at 33 RU on CM5, antibody as analyte
T2 construct: extracellular domain; also called hPD-mIg; not shown: CH2-CH3 domain of mouse IgG2a heavy chain (plasmid pmIgG)

[5] = molecular target: T1, human PD-1 (hPD-1) expressed on cells; assay: flow cytometry, FACS binding to CHOK1-hPD-1 cells
Method: (§1) The bindings of the antibodies to hPD-1 and cross-reactivity to cynomolgus monkey PD-1 (cPD-1) were tested using hPD-1 or cPD-1 expressing CHOK1 cells by flow cytometry. CHOK1-hPD-1, CHOK1-cPD-1 and CHOK1 blank cells were incubated with a serial dilution of test articles followed by Alexa Fluor® 488 conjugated goat anti-human IgG (H+L) antibody, and analyzed using a FACSCanto II (BD Biosciences, San Jose, Calif.).

[6] = molecular target: T3, cynomolgus monkey PD-1 (cPD-1) expressed on cells (cynomolgus monkey, UniProt B0LAJ3 25-288); assay: flow cytometry, FACS binding to CHOK1-cPD-1 cells
T3 construct: also called CHOK1-cPD-1; PD-1 on cynomolgus monkey T cell
Method: as §1

hPD-1mIg fusion protein [7] = molecular target: T2, hPD-1mIg fusion protein; assay: SPR, Biacore T100, hPD-1mIg immobilized on CM5, antibody as analyte
Method: The binding affinity and kinetics of the humanized PD-1 mAbs interact with hPD-1 protein was assessed with Biacore T100 (GE Healthcare Life Sciences). […] Nine different concentrations were tested for each sample. Detailed binding kinetic parameters (association rate, Ka, dissociation rate, Kd, and affinity constant, KD) can be determined by full kinetic analysis.

T3 sequence (B0LAJ3 entry or part of it limits assumed): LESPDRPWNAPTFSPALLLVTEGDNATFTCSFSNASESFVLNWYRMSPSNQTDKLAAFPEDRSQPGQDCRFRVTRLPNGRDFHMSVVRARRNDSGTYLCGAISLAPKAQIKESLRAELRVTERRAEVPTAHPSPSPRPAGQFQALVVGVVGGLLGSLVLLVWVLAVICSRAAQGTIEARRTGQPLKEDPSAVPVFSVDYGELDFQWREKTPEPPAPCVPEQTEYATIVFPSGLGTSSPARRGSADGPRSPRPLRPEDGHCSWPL
T1 sequence (Q15116 25-288): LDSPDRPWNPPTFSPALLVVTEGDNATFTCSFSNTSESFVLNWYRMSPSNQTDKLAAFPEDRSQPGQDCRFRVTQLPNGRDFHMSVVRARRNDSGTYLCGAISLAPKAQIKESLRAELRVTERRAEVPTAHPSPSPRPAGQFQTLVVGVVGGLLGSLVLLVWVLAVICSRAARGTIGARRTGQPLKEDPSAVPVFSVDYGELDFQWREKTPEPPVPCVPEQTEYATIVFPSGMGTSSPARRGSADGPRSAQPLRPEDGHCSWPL
T2 sequence (Q15116 25-170): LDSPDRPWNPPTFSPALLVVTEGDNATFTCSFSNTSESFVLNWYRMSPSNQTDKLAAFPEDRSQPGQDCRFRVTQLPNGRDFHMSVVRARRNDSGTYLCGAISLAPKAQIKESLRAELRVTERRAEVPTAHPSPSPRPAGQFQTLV

EC50 (read off the curve) [5] [nM] | EC50 (read off the curve) [6] [nM] | Molecule | other results
– | – | control human IgG4 (antibody) | Inhibition rate [1]: 4.8%; EC50 of luciferase signal (RLU), PD-1/PD-L1 Blockade Bioassay with Jurkat-PD1 and CHO-PD-L1 cells; the Ctrl IgG4 curve is flat at about 270000 RLU and never rises [2]: 12400 ng/mL
– | – | Variant 3 (TY101) (humanized, VH variant a / VK variant c) (antibody, V domains shown, hIgG4 is the negative control; also called mutant combination 3) VH: EVQLVESGGGLVQPGGSLRLSCAASGFTFSSYTMSWVRQAPGKGLEWVSYISHGGGDTYYADSVKGRFTISRDNSKNTLYLQMNSLRAEDTAVYYCARHSGYERGYYYVMDYWGQGTLVTVSS VL: DIQLTQSPDSLSVSLGERATINCKASESVDYYGFSFLNWFQQKPGQPPKLLIYAASNRQSGVPDRFSGSGSGTDFTLTISSLQAEDVAVYFCQQSKEVPWTFGQGTKLEIKR | EC50 of luciferase signal (RLU), PD-1/PD-L1 Blockade Bioassay with Jurkat-PD1 and CHO-PD-L1 cells [3]: 224 ng/mL; fold slower dissociation rate Kd than the two commercial antibodies (Pembrolizumab, Nivolumab) (hPD-1mIg fusion protein [4]): 10 times
~0.9 | ~2 | TY101-4G1 (antibody, V domains shown, TY101 is Variant 3 (VH a, VK c); isotype control is hIgG4; also called TY101 clone TY101-4G1) VH: EVQLVESGGGLVQPGGSLRLSCAASGFTFSSYTMSWVRQAPGKGLEWVSYISHGGGDTYYADSVKGRFTISRDNSKNTLYLQMNSLRAEDTAVYYCARHSGYERGYYYVMDYWGQGTLVTVSS VL: DIQLTQSPDSLSVSLGERATINCKASESVDYYGFSFLNWFQQKPGQPPKLLIYAASNRQSGVPDRFSGSGSGTDFTLTISSLQAEDVAVYFCQQSKEVPWTFGQGTKLEIKR | –
~0.9 | ~2 | TY101-04-T3-05 (antibody, V domains shown, TY101 is Variant 3 (VH a, VK c); isotype control is hIgG4; also called TY101 clone TY101-04-T3-05) VH: EVQLVESGGGLVQPGGSLRLSCAASGFTFSSYTMSWVRQAPGKGLEWVSYISHGGGDTYYADSVKGRFTISRDNSKNTLYLQMNSLRAEDTAVYYCARHSGYERGYYYVMDYWGQGTLVTVSS VL: DIQLTQSPDSLSVSLGERATINCKASESVDYYGFSFLNWFQQKPGQPPKLLIYAASNRQSGVPDRFSGSGSGTDFTLTISSLQAEDVAVYFCQQSKEVPWTFGQGTKLEIKR | –
~0.9 | ~2 | TY101-01-09 (antibody, V domains shown, TY101 is Variant 3 (VH a, VK c); isotype control is hIgG4; also called TY101 clone TY101-01-09) VH: EVQLVESGGGLVQPGGSLRLSCAASGFTFSSYTMSWVRQAPGKGLEWVSYISHGGGDTYYADSVKGRFTISRDNSKNTLYLQMNSLRAEDTAVYYCARHSGYERGYYYVMDYWGQGTLVTVSS VL: DIQLTQSPDSLSVSLGERATINCKASESVDYYGFSFLNWFQQKPGQPPKLLIYAASNRQSGVPDRFSGSGSGTDFTLTISSLQAEDVAVYFCQQSKEVPWTFGQGTKLEIKR | –
– | – | Variant 4 (humanized, VH variant b / VK variant a) (antibody, V domains shown, also called mutant combination 4) VH: EVQLVESGGGLVQPGGSLRLSCAASGFTFSSYTMSWVRQAPGKGLEWVSYISHGGGDTYYPDSVKGRFTISRDNSKNTLYLQMNSLRAEDTAVYYCARHSGYERGYYYVMDYWGQGTLVTVSS VL: DIVMTQSPDSLAVSLGERATINCKSSESVDYYGFSFLNWFQQKPGQPPKLLIYAASNRESGVPDRFSGSGSGTDFTLTISSLQAEDVAVYYCQQSKEVPWTFGQGTKLEIKR | kon (hPD-1mIg fusion protein [7]): 119000 M⁻¹ s⁻¹

From patent publication US20190144543A1 (TAYU HUAXIA BIOTECH MEDICAL GROUP, published 2019)
